Source: patent US20110064743A1

B1: 1250_I13 (antibody, V domains shown)
VH: QVQLQQWGAGLLKPSETLSLTCAVYGGSFSGYFWTWVRQLPGRGLEWIGEINHRGTSSYNPSLRSRLTISVDTSKNQFSLKLSSVTAADTAVYYCARITEAVGFTSFDYWGQGILVTVSS
VL: QSVLTQPPSMSAAPGQKVTISCSGSTSNIGSNYVSWYQQLPQRAPKLLIYDNDKRPSGIPDRFSGSKSGASATLDITGLQTGDEAYYYCGTWDSSLSRVFGGGTKLTVL
B2: 1253_N12 (antibody, V domains shown)
VH: QVQLQQWGAGLVKPSETLSVTCAVYGGSFSGYFWTWIRQPPGRGLEWIGEINHRGSSSYNPSLRSRLSISVDTSKNQFSLKMRSVTAADTAVYYCARITEAVGVTSFDSWGQGVLVTVSS
VL: QSVLTQPPSVSAAPGQKVTISCSGSTSNIGNNYVSWYQQLPQRAPKLLIYDDDKRPSGIPDRFSGSKSGASATLAITGLQTGDEAYYYCGTWDSSLSRVFGGGTKLTVL
B3: 1242_P11 (antibody, V domains shown)
VH: QVQLTQWGAGLLKPSETLSLTCAVGGGSFSGYFWTWIRQSPGRGLEWIGEINHKGKTTYNPTLKSRLSILVDTFKNQFSLKLRSVVAADTAVYYCARIVEAVGVTSFDSWGQGILVTVSS
VL: QSVLTQPPSVSAAPGQKVTISCSGSTSNIGNNHVSWYQQLPQTAPKLLIYDNNKRPSGIPDRFSGSKSGASATLGITGLQTGDEAYYYCGTWDTRLSRVFGGGTKLTVL
B4: 1256_B2 (antibody, V domains shown)
VH: QVQLQQWGAGLLKPSETLSLTCAVYGGSFSGYFWSWIRQPPGRGLEWIGEINHRGSSTYKSSLKTRLTMSVDTSKNQFSIKLTSVTAADTAVYYCARITEAVGVTSFDSWGQGVLVTVSS
VL: QSVLTQPPSVSAAPGQKVTISCSGSTSNIGNNYVSWYQQLPQRAPRLLIYDNDKRPSGIPDRFSGSKSGASATLGITGLQTGDEAYYYCGTWDNNLSRVFGGGTKLTVL
B5: 1226_K16 (antibody, V domains shown)
VH: QVQLQQWGAGLLKPSETLSLTCAVYGGSLSGYFWTWIRQPPGRGLEWIGEINHRRTTTSNPSLRSRLTISLDTSKNQFSLKLSSVTAADTAVYYCARITEAVGVTSFDYWGQGILVTVSS
VL: QSVLTQPPSVSAAPGQKVNISCSGSTSNIGNNFVAWYQQLPQRAPKLLIYDNDKRPSGIPDRFSGSKSGASATLGITGLQSGDEAYYYCGTWDSTLSRVFGGGTKLTVL
B6: 1038_D5 (TCN-445) (antibody, V domains shown)
VH: QVQLVQSGAEVQKPGASMKVSCKASGYTFTDFYFHWVRQAPGQGLEWMGWINPRSGATNYAHKFRGRVTMTSDTSIKTIYMSLGWLRSGDTAVYYCARDMRRENGYNFDGTFDYWGQGTLVTVSS
VL: DIQMTQSPPSLSASVGDRVTITCQASQDIKNYLNWYQQKPGKAPKLLIYDASNLETGVPSRFSGSRSGTNFTFTINSLQPEDIATYFCQRYDAFPLTFGGGSKVEIK

Key:
[1] = molecular target: SK-BR-3 cells (antigen not identified); assay: saturation binding to cells by FACS, double-reciprocal plot; 'Rel. Affinity (nM)'; antigen on the cells not identified
[2] = molecular target: OVCAR-3 cells (antigen not identified); assay: as above
[3] = molecular target: OVCAR-3 cells (antigen not identified); assay: immunohistochemistry on OVCAR3 cells

Binder	Kd [1] [nM]	Kd [2] [nM]	# Samples Staining Positive [3] [%]
B1	1.1		
B2	1.1		
B3		2	
B4	1.2		
B5		1.6	
B6		0.8	> 75
